Measured values: PMC9789324 (Food Chemistry: Molecular Sciences, 2022)
One block for each molecule: values may come before it.

Experiments:
Test in all cases: crystal structure
[1] = target: Len c 1, lentil vicilin (7S globulin) core region (Lens culinaris Medicus (lentil))
[2] = target: Pis s 1, pea vicilin (7S globulin) core region (Pisum sativum L. (pea))
crystal structure = target: the molecule itself

stoichiometry N [1]: 3
Molecule: Len c 1, lentil vicilin (7S globulin) core region (domain or fragment)

stoichiometry N [2]: 3
Molecule: Pis s 1, pea vicilin (7S globulin) core region (domain or fragment)

B1: Pis s 2, pea convicilin (7S globulin) core region (domain or fragment, Pisum sativum L. (pea))
chain: SQERRNPFLFKSNKFLTLFENENGHIRLLQRFDKRSDLFENLQNYRLVEYRAKPHTIFLPQHIDADLILVVLSGKAILTVLSPNDRNSYNLERGDTIKLPAGTTSYLVNQDDEEDLRLVDLVIPVNGPGKFEAFDLAKNKNQYLRGFSKNILEASYNTRYETIEKVLLEEQEKDRKRRQQGEETDAIVKVSREQIEELKKLAKSSSKKSLPSEFEPINLRSHKPEYSNKFGKLFEITPEKKYPQLQDLDLFVSCVEINEGALMLPHYNSRAIVVLLVNEGKGNLELLGLKNEQQEREDRKERNNEVQRYEARLSPGDVVIIPAGHPVAITASSNLNLLGFGINAENNERNFLSGSDDNVISQIENPVKELTFPGSVQEINRLIKNQKQSHFANA
stoichiometry N (crystal structure): 3
